From US20220396626A1 (GUANGZHOU BIO GENE TECHNOLOGY, published 2022)

T1: Recombinant Cynomolgus Monkey CLL-1 Protein (his), Acro CLA-H5263 (cynomolgus monkey, UniProt A0A2K5WXQ4 71-271)
T1 construct: also called Analyte 2
T1 sequence: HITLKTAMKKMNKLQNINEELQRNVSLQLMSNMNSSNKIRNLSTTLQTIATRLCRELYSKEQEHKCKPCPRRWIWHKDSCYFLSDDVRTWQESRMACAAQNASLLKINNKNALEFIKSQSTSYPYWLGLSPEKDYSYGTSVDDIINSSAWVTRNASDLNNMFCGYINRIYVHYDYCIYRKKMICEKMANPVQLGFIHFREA

T2: Recombinant Human CLL-1 Protein (his), Acro CLA-H5245 (human, UniProt Q5QGZ9 65-265)
T2 construct: also called Analyte 1; not shown: his tag
T2 sequence (looked up): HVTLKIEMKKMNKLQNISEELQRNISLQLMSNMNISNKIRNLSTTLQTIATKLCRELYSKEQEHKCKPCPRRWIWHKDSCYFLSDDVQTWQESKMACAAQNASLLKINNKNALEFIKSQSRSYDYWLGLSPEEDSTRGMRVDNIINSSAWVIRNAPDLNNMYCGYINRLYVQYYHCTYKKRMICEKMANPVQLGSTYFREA

T3: human CLL1 ECD-His (human CLL1 extracellular domain with His tag) (human, UniProt Q5QGZ9 65-265)
T3 construct: also called antigen human CLL1 ECD-His; antigen CLL1; not shown: His tag
T3 sequence: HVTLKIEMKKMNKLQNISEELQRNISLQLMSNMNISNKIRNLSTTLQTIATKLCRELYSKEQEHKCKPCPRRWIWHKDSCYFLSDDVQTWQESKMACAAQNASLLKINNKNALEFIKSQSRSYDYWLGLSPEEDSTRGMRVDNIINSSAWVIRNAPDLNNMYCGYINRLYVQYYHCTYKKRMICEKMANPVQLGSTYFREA

T4: human CLL1 on the surface of transfected cells (HEK293-CLL1; HEK-293T membrane proteome array) (human, UniProt Q5QGZ9 1-265)
T4 construct: whole, on cells; also called HEK293-CLL1 cells; CLL1 target antigen
T4 sequence (looked up): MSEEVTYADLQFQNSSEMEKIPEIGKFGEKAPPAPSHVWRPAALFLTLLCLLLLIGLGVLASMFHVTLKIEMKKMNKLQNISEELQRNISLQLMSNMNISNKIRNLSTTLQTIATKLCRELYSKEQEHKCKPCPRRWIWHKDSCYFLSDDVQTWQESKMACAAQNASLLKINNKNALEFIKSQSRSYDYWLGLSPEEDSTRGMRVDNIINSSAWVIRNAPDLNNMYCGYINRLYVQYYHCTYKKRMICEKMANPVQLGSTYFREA


How the values were obtained:
[1] = target: T1, Recombinant Cynomolgus Monkey CLL-1 …; assay: SPR, antibody captured on Protein A chip, cynomolgus CLL-1 as analyte
[2] = target: T2, Recombinant Human CLL-1 Protein (his), …; assay: SPR, antibody captured on Protein A chip, recombinant human CLL-1 as analyte 3.125-50 nM, 1:1 model
[3] = target: T3, human CLL1 ECD-His (human CLL1 …); assay: BLI (ForteBio), antibody on AHC sensor, 100 nM human CLL1 ECD-His, 1:1 model
Method: In short, the antibody was loaded on the anti-human IgG capture (AHC) biosensor, the sensor was equilibrated in the assay buffer for 30 min offline, and monitored online for 60 s to establish the baseline; the antibody-loaded sensor was incubated with the 100 nM antigen human CLL1 ECD-His for 5 min, then transferred to the assay buffer, and the dissociation rate was measured after 5 min; the kinetic analysis was carried out using a 1:1 combination model.

[4] = target: T3, human CLL1 ECD-His (human CLL1 …); assay: BLI (ForteBio), antibody on AHC sensor, 60 nM human CLL1 ECD-His, 1:1 model
Method: In short, 4 μg/mL antibody was loaded on the anti-human IgG capture (AHC) biosensor, the sensor was equilibrated offline for 30 min in the assay buffer, and the online monitoring was used for 60 s to establish the baseline; the antibody-loaded sensor was incubated with the 60 nM antigen human CLL1 ECD-His for 3 min, then transferred to the assay buffer, and the dissociation rate was measured after 3 min; the kinetic analysis was performed using a 1:1 binding model.

[5] = target: T4, human CLL1 on the surface of …; assay: flow cytometry on HEK293 cells overexpressing CLL1, FITC goat anti-human IgG-Fc secondary; controls on the sheet: Cells + Secondary Antibody 1029.8, Blank 1041.3
Method: In the present example, flow cytometry was used to detect the binding of antibodies ch23D7, ch27H4, and ch19C1 to CLL1 on HEK293 cells. The steps are as follows:
5×10⁵ HEK293 cells overexpressing CLL1 were resuspended in PBS+5% BSA and incubated at 4° C. for 30 min; antibodies of different concentrations (1 μg/mL˜0.01 μg/mL, 10-fold dilutions) were added and incubated at 4° C. for 60 min; after centrifugation and washing, a PBS+5% BSA solution containing FITC-labeled goat anti-human IgG-Fc secondary antibody (1:200, sigma, F9512) was added, and incubated on ice for 30 min in the dark; the cells were washed 3 times and then analyzed by flow cytometry;

[6] = target: T4, human CLL1 on the surface of …; assay: flow cytometry on HEK293 cells overexpressing CLL1
Description: In the present example, flow cytometry was used to detect the binding of antibodies hz27H4H1L1, hz27H4H1L2 and CLL1 on HEK293 cells.

binding result [1]	Kd [2]	koff [2]	kon [2]	Kd [3]	Response [3]	koff [3]	kon [3]	Kd [4]	Response [4]	koff [4]	kon [4]	MFI at 0.01ug/ml [5]	MFI at 0.1ug/ml [5]	MFI at 1ug/ml [5]	EC50 [6]	Binder
no binding (tested: 50 nM)	5.75 nM	0.00509 s⁻¹	886000 M⁻¹ s⁻¹													19C1-scFv-hFc (Fc fusion, VL-(G4S)3-VH structure with C-terminal human IgG1 Fc; also called Anti-CLL1 scFv-hIgG1; not shown: human IgG1 Fc fused at the C-terminus) scFv: QIVLTQSPAIMSASPGEKVTMTCSASSSVSYMYWYQQKPGSSPRLLIFDTSNLASGVPVRFSGSGSGTSYSLTISRMEAEDAATYYCQQWSSYPLTFGAGTKLELKGGGGSGGGGSGGGGSQVQLQQSGAELMKPGASVKISCKATGYTFSSYWIEWVKQRPGHGLEWIGEIFPGSGSIKYNEKFKGKATFTADTSSNTAYMQLSSLTSEDSAVHYCARGGTYNDYSLFDYWGQGTTLTVSS
				3.83 nM	0.634	0.00101 s⁻¹	265000 M⁻¹ s⁻¹	3.88 nM	0.597	0.00124 s⁻¹	320000 M⁻¹ s⁻¹	3510	25200	163000	0.358 µg/mL	chimeric antibody ch27H4 (antibody, V domains shown, also called parent antibody) VH: EVQLQQSGPELVKPGASVKISCKASGYSFTGYHMHWVKQSHVKSLEWIGRINPYNGAASHNQKFKDKATLTVDKSSSTAYMELHSLTSEDSAVYYCARGWDYDGGYYAMDYWGQGTSVTVSS VL: DIVMSQSPSSLAVSVGEKVTMSCKSSQSLLYSDNQKNYLAWYQQKPGQSPKLLIYWASTRESGVPDRFTGSGSGTDFTLTISSVKAEDLAVYYCQQYYTYPYTFGGGTKLEIK
no binding (tested: 50 nM)	110 nM	0.0322 s⁻¹	293000 M⁻¹ s⁻¹													23D7-scFv-hFc (Fc fusion, VL-(G4S)3-VH structure with C-terminal human IgG1 Fc; also called Anti-CLL1 scFv-hIgG1; not shown: human IgG1 Fc fused at the C-terminus) scFv: QIVLTQSPAIMSASPGEKVTMTCSASSSVSYIYWYQQKPGSSPGLLIYDTSNLASGVPVRFSGSGSGTSYSLTISRMEAEDAATYYCQQWSSFPPTFGAGTKLELKGGGGSGGGGSGGGGSQVQLQQPGSDLVRPGASVKLSCKASGYTFTRYWMHWVKQRPGHGLEWIGYIYPGSGTSNYDEKFKSKATLTVDTSSSTAYMQLSSLTSEDSAVYYCTREARYTMDYWGQGTSVTVSS
				10.9 nM	0.619	0.00197 s⁻¹	180000 M⁻¹ s⁻¹					4610	35900	163000		chimeric antibody ch19C1 (antibody, V domains shown) VH: QVQLQQSGAELMKPGASVKISCKATGYTFSSYWIEWVKQRPGHGLEWIGEIFPGSGSIKYNEKFKGKATFTADTSSNTAYMQLSSLTSEDSAVHYCARGGTYNDYSLFDYWGQGTTLTVSS VL: QIVLTQSPAIMSASPGEKVTMTCSASSSVSYMYWYQQKPGSSPRLLIFDTSNLASGVPVRFSGSGSGTSYSLTISRMEAEDAATYYCQQWSSYPLTFGAGTKLELK
				2.19 nM	0.654	0.000284 s⁻¹	130000 M⁻¹ s⁻¹					4690	34600	151000		chimeric antibody ch23D7 (antibody, V domains shown) VH: QVQLQQPGSDLVRPGASVKLSCKASGYTFTRYWMHWVKQRPGHGLEWIGYIYPGSGTSNYDEKFKSKATLTVDTSSSTAYMQLSSLTSEDSAVYYCTREARYTMDYWGQGTSVTVSS VL: QIVLTQSPAIMSASPGEKVTMTCSASSSVSYIYWYQQKPGSSPGLLIYDTSNLASGVPVRFSGSGSGTSYSLTISRMEAEDAATYYCQQWSSFPPTFGAGTKLELK
				0.414 nM	0.236	4.48e-05 s⁻¹	108000 M⁻¹ s⁻¹	6.76 nM	0.219	0.000997 s⁻¹	148000 M⁻¹ s⁻¹	4580	35600	222000	0.245 µg/mL	anti-human CLL-1 control antibody 1075.7 (antibody, it was captured by anti-human IgG sensors and detected with anti-human IgG-Fc, so a human Fc was present; also called ch1075.7) scFv: ENVLTQSPAIMSASPGEKVTMTCRASSNVISSYVHWYQQRSGASPKLWIYSTSNLASGVPARFSGSGSGTSYSLTISSVEAEDAATYYCQQYSGYPLTFGAGTKLELGGGGSGGGGSGGGGSDIQLQESGPGLVKPSQSLSLTCSVTGYSITSAYYWNWIRQFPGNKLEWMGYISYDGRNNYNPSLKNRISITRDTSKNQFFLKLNSVTTEDTATYYCAKEGDYDVGNYYAMDYWGQGTSVTVSS
no binding (tested: 50 nM)	1.12 nM	0.00549 s⁻¹	4.91e+06 M⁻¹ s⁻¹					2.29 nM	0.612	0.000862 s⁻¹	377000 M⁻¹ s⁻¹				0.262 µg/mL	humanized antibody hz27H4H1L1 (antibody, V domains shown, Heavy chain variable region hz27H4H1 with light chain variable region hz27H4L1; also called h27H4H1L1 (complete antibody)) VH: EVQLVQSGAEVKKPGASVKVSCKASGYTFTGYHMHWVRQAPGQRLEWMGRINPYNGAASHNQKFKDRVTITRDTSASTAYMELSSLRSEDTAVYYCARGWDYDGGYYAMDYWGQGTLVTVSS VL: DIQMTQSPSSLSASVGDRVTITCKSSQSLLYSDNQKNYLAWYQQKPGKAPKLLIYWASTRESGVPSRFSGSGSGTDFTLTISSLQPEDFATYYCQQYYTYPYTFGQGTKLEIK
no binding (tested: 50 nM)	1.08 nM	0.00544 s⁻¹	5.04e+06 M⁻¹ s⁻¹					2.21 nM	0.726	0.000976 s⁻¹	441000 M⁻¹ s⁻¹				0.321 µg/mL	humanized antibody hz27H4H1L2 (antibody, V domains shown, Heavy chain variable region hz27H4H1 with light chain variable region hz27H4L2; also called h27H4H1L2 (complete antibody)) VH: EVQLVQSGAEVKKPGASVKVSCKASGYTFTGYHMHWVRQAPGQRLEWMGRINPYNGAASHNQKFKDRVTITRDTSASTAYMELSSLRSEDTAVYYCARGWDYDGGYYAMDYWGQGTLVTVSS VL: DIVMTQSPLSLPVTPGEPASISCKSSQSLLYSDNQKNYLAWYLQKPGQSPQLLIYWASTRESGVPDRFSGSGSGTDFTLKISRVEAEDVGVYYCQQYYTYPYTFGQGTKLEIK
								2.49 nM	0.722	0.00109 s⁻¹	438000 M⁻¹ s⁻¹					humanized antibody hz27H4H1L3 (antibody, V domains shown, Heavy chain variable region hz27H4H1 with light chain variable region hz27H4L3) VH: EVQLVQSGAEVKKPGASVKVSCKASGYTFTGYHMHWVRQAPGQRLEWMGRINPYNGAASHNQKFKDRVTITRDTSASTAYMELSSLRSEDTAVYYCARGWDYDGGYYAMDYWGQGTLVTVSS VL: not shown
no binding (tested: 50 nM)	3.06 nM	0.0126 s⁻¹	4.11e+06 M⁻¹ s⁻¹													27H4-scFv-hFc (Fc fusion, VL-(G4S)3-VH structure with C-terminal human IgG1 Fc; also called Anti-CLL1 scFv-hIgG1; not shown: human IgG1 Fc fused at the C-terminus) scFv: DIVMSQSPSSLAVSVGEKVTMSCKSSQSLLYSDNQKNYLAWYQQKPGQSPKLLIYWASTRESGVPDRFTGSGSGTDFTLTISSVKAEDLAVYYCQQYYTYPYTFGGGTKLEIKGGGGSGGGGSGGGGSEVQLQQSGPELVKPGASVKISCKASGYSFTGYHMHWVKQSHVKSLEWIGRINPYNGAASHNQKFKDKATLTVDKSSSTAYMELHSLTSEDSAVYYCARGWDYDGGYYAMDYWGQGTSVTVSS
